Laboratory results taken from patent publication US20240002475A1 (ROCKEFELLER UNIVERSITY, published 2024).

Molecular target: green fluorescent protein (GFP), recombinant (Aequorea victoria, UniProt P42212 1-238 = GFP)
Test: not stated there (SPR or in vitro binding assay)

B1: LaG-41 (VHH)
VHH: DVQLVESGGGLVQAGGSLRLSCAASGPTGAMAWFRQAPGKEREFVGGISGSETDTYYVDSVKGRFTVDRDNVKNTVYLQMNSLKPEDTAVYYCAARRRITLFTSRTDYDFWGRGTQVTV
Kd: 0.9 nM
